# Results reported in patent US11807881B2, “Polypeptide, fusion polypeptide, and antibiotic against gram-negative bacteria comprising same” (priority 2020, dated 2023).
# B1: LNT103: fusion polypeptide [Cecropin A]-[linker (GSGSGS)]-[endolysin LNT102]; SEQ ID NO: 15 (MAS, His tag) used in the tests (protein)
# chain: MASKWKLFKKIEKVGQNIRDGIIKAGPAVAVVGQATQIAKGSGSGSMGTVLKRGDRGSAVEDLQMKLNVAGYNLSADGIFGGDTEKAVRDVQAGAGLVVDGKVGPKTLYAIAKSATVPAKWEAIPFPTANKSRSAAMPTLNAVGAMTGVDSRLLATFASIESAFDYTVKAKTSSATGWFQFLDATWDDMIKAYGSKYGIPKDPTRALRKDPRANALMGAEFIKGNAAVLRPVINREPSDTDLYLAHFLGAGGAKKFLSADQKTLGEVLFPKPAKANPSIFSNKGVPRTLAEIYKLFEDKVSKHRALEHHHHHH
# modifications: synthetic_Fusion Polypeptide LNT103 with MAS, His tag, and extra sequence
# Assays:
# Format in all cases: cell-based
# [1] = test system: Acinetobacter baumannii (ATCC 19606); assay: FIC index, combination of colistin and LNT103; conditions: LNT103 in combination with colistin (polymyxin E)
# Procedure: The synergy effect of killing ability against gram negative bacterium by combination treatment of a polymyxin-based antibiotic having a mechanism acting on the cell membrane of bacterium and the fusion polypeptide LNT103 was confirmed. Specifically, colistin (polymyxin E) of […] was treated to a 96 well microplate column 1, and it was treated at a concentration where serial dilution was performed by ½ in columns 2-11. The LNT103 of 16 μg/ml was treated to row A, and it was treated at a concentration where serial dilution was performed by ½ in rows B-G. After that, Acinetobacter baumannii (ATCC 19606) was treated in an amount of 5×10^5 CFU/ml, total 100 μl in all wells. Then, it was cultured at 37° C. for 18 hours, and the FIC (Fractional Inhibitory Concentration) index value was calculated by the following equation: FIC index=FICA+FICB=(CA/MICA)+(CB/MICB)
# (CA and CB are each concentration of substances treated in combination (polymyxin E and LNT103), and MICA and MICB are MIC of single drug,
# FIC value: synergy effect <0.5; antagonism >4; additive 0.5-4)
# [2] = test system: gram negative bacterium (Pseudomonas aeruginosa (PA01; ATCC 15692) and Acinetobacter baumannii (ATCC 19606)); assay: NPN uptake assay (outer membrane permeabilization)
# Procedure: In order to evaluate the outer membrane permeabilization activity of the gram negative bacterium of the fusion polypeptide prepared in the Example 3.2, NPN uptake assay was performed. As representative gram negative bacterium, Pseudomonas aeruginosa and Acinetobacter baumannii were used for the test.
# Pseudomonas aeruginosa (PA01; ATCC 15692) or Acinetobacter baumannii (ATCC 19606) was cultured by OD600=0.3 and centrifuged at 1,000 g for 10 minutes, and then it was resuspended with a ½ volume of 5 mM HEPES (Hydroxyethyl piperazine Ethane Sulfonic acid) (pH 7.2). 40 μM NPN (1-N-phenylnaphthylamine) solution (40 μM NPN in 5 mM HEPES, pH7.2) 50 μl, the test substance (LNT101, LNT102 or LNT103) 50 μl, and strain suspension solution 100 μl (total 200 μl) were added to a microplate and reacted at 37° C. for 1 hour. Then, fluorescence was measured under the condition of excitation 350 nm and emission 420 nm with a microplate reader (Infinite M200 Pro, TECAN). As a positive control group, Cecropin A (SEQ ID NO: 8), EDTA, or polymyxin B was used, and as a negative control group, 10 μM NPN solution was used. All the experiments were performed in 3 sets. […]
# [3] = test system: A. baumannii; assay: MIC and MBC, broth microdilution in CAA media
# Procedure: In addition, MIC (Minimal Inhibitory Concentration) and MBC (Minimal Bactericidal Concentration) of the fusion polypeptide LNT103 were measured. […] Specifically, the LNT103 was treated at a concentration of 64 μg/ml to a 96 well microplate row A, and the LNT103 was treated at a concentration where serial dilution was performed by ½ in rows B-G. To the row H, LNT103 was not treated. After that, the corresponding bacterium strain (type or QC, CCARM and clinical separation strain; See Tables 2-4) was treated in an amount of 5×10^5 CFU/ml, total 100 μl in all wells. Then, it was cultured at 37° C. for 18 hours. MIC was determined to be the lowest concentration at which no colonies were identified by confirming the number of the colonies in each well.
# [4] = A. baumannii 643(Kyungpook National University)
# [5] = A. baumannii 3680(Gyeongsang National University)
molecule,measurement,setting,value
B1,FIC index value,"[1]; 5×10^5 CFU/ml, 37° C. 18 hours",0.375
same,interaction of the two substances by FIC index,[1]; synergy effect <0.5,there was a synergy effect between the two substances
same,"outer membrane permeabilization activity (NPN uptake, fold change over control)","[2]; 2 μM, 37° C. 1 hour, compared with LNT101, LNT102, cecropin A 2 μM, polymyxin B 2 μM, EDTA 1 mM",higher outer membrane permeabilization activity against gram negative bacterium than the polypeptides LNT101 and LNT102 at the same concentration
same,"outer membrane permeabilization activity (NPN uptake, fold change over negative control)","[2]; LNT103 0.29 μM, 0.88 μM, 2.65 μM",increased in a concentration-dependent manner
same,MBC,[3]; [4],16 µg/mL
same,MIC,[3]; [4],8 µg/mL
same,MBC,[3]; [5],8 µg/mL
same,MIC,[3]; [5],8 µg/mL
same,MBC,[3]; A. baumannii ATCC 17978,8 µg/mL
same,MIC,[3]; A. baumannii ATCC 17978,8 µg/mL
same,MBC,[3]; A. baumannii ATCT 19606,8 µg/mL
same,MIC,[3]; A. baumannii ATCT 19606,8 µg/mL
same,MBC,[3]; A. baumannii CCARM 12001,8 µg/mL
same,MIC,[3]; A. baumannii CCARM 12001,8 µg/mL
same,MBC,[3]; A. baumannii CCARM 12015,16 µg/mL
same,MIC,[3]; A. baumannii CCARM 12015,16 µg/mL
same,MBC,[3]; A. baumannii CCARM 12026,8 µg/mL
same,MIC,[3]; A. baumannii CCARM 12026,8 µg/mL
same,MBC,[3]; A. baumannii CCARM 12035,8 µg/mL
same,MIC,[3]; A. baumannii CCARM 12035,8 µg/mL
same,MBC,[3]; A. baumannii CCARM 12202,8 µg/mL
same,MIC,[3]; A. baumannii CCARM 12202,8 µg/mL
same,MBC,[3]; A. baumannii F4,16 µg/mL
same,MIC,[3]; A. baumannii F4,16 µg/mL
same,MBC,[3]; A. baumannii F15,8 µg/mL
same,MIC,[3]; A. baumannii F15,8 µg/mL
same,MBC,[3]; A. baumannii F65,4 µg/mL
same,MIC,[3]; A. baumannii F65,4 µg/mL
same,MBC,[3]; A. baumannii F66,4 µg/mL
same,MIC,[3]; A. baumannii F66,4 µg/mL
same,MBC,[3]; A. baumannii F67,8 µg/mL
same,MIC,[3]; A. baumannii F67,8 µg/mL
same,MBC,[3]; A. baumannii F68,4 µg/mL
same,MIC,[3]; A. baumannii F68,4 µg/mL
same,MBC,[3]; A. baumannii F69,8 µg/mL
same,MIC,[3]; A. baumannii F69,8 µg/mL
same,MBC,[3]; A. baumannii F70,16 µg/mL
same,MIC,[3]; A. baumannii F70,16 µg/mL
same,MBC,[3]; A. baumannii F71,8 µg/mL
same,MIC,[3]; A. baumannii F71,8 µg/mL
same,MBC,[3]; A. baumannii KACC 13090,8 µg/mL
same,MIC,[3]; A. baumannii KACC 13090,8 µg/mL
same,MBC,[3]; A. baumannii KACC 14233,8 µg/mL
same,MIC,[3]; A. baumannii KACC 14233,8 µg/mL
